Source: PMC6771230
pKd: −log10 of the molar value.

Test system: YB-1
Assay: EMSA
Conditions: serial-diluted protein; RNA-EMSA in Thermo Scientific kit binding buffer, 6% polyacrylamide gel; salt, pH and temperature not stated

## H19 RNA fragment 661-745 (85 nt)
  pKd: 5.13
